For the test, the target named is T1, Ubc9 (wild type) (UniProt P63279 1-158).
T1 construct: Ubc9, the single SUMO conjugating enzyme (E2); the crystal structure PDB 2GRN chain a served as its model; Uniformly 15N-labelled for NMR; also called WT Ubc9; Ubc9WT; source: recombinant, purified (Ni-NTA chromatography, gel filtration)
Put plainly: ITC; 2 μl additions of peptide to 200 μl of WT Ubc9 or Ac-Ubc9K65; 25 °C; pH 8.0, 20 mM potassium phosphate, 100 mM NaCl; iTC200; fitted assuming 1:1 binding stoichiometry. The settings on record: both partners purified. (In general: Isothermal titration calorimetry measures the heat released or taken up as one component is titrated into another.)

T1 sequence (P63279 whole entry): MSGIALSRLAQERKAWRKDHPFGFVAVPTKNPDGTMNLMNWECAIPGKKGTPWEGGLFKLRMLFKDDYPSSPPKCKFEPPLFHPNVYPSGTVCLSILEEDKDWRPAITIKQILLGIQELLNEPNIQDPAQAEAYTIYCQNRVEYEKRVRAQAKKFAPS

B1: CBP NDSM peptide (peptide)
chain: VKVEVKEEEESSSN
modifications: Synthetic peptide; true ends and caps are only in Figure 1A. Limits used here are the Psi-K-x-E core through x10 (x1-x10 = VKEEEESSSN, Supplementary Table 1), around sumoylation site K1056
The term Kd denotes the concentration at which binding is half-saturated. A lower Kd goes with tighter binding. Consider B1, for which the Kd came out at 57 µM.
